# Reference: the DeepSol protein solubility set
# Assay: soluble on expression in E. coli; label from the status in PepcDB or PDB records
row,Sequence,soluble on expression in E. coli
1,MKGYQSLVFNFFFLKLSAENESTPIQQLLEHFLRQLQRKDPHGFFAFPVTDAIAPGYSMIIKHPMDFGTMKDKIVANEYKSVTEFKADFKLMCDNAMTYNRPDTVYYKLAKKILHAGFKMMSKERLLALKRSMSFMQDMDFSQQAALLGNEDTAVEEPVPEVVPVQVETAKKSKKPSREVISCMFEPEGNACSLTDSTAEEHVLALVEHAADEARDRINRFLPGGKMGYLKRNGDGSLLYSVVNTAEPDADEEETHPVDLSSLSSKLLPGFTTLGFKDERRNKVTFLSSATTALSMQNNSVFGDLKSDEMELLYSAYGDETGVQCALSLQEFVKDAGSYSKKVVDDLLDQITGGDHSRTLFQLKQRRNVPMKPPDEAKVGDTLGDSSSSVLEFMSMKSYPDVSVDISMLSSLGKVKKELDPDDSHLNLDETTKLLQDLHEAQAERGGSRPSSNLSSLSNASERDQHHLGSPSRLSVGEQPDVTHDPYEFLQSPEPAASAKT,soluble
2,MIQAAKIKQLKSLDSDLEKAIGRISGGLYIITAQKGEVKGAMLASWVSQASFNPPGFTVAVAKDRAIESLMQVGDRFVLNILEEGNYQILMKHFLKRFPPGADRFAGVKTQTASNGSPILTDALAYLECEVASRMECSDHWIVYSQVTNGRVAKAEGLTAVHHRKVGNYYLEHHHHHH,soluble
3,MGHHHHHHSHIKPGEEVFTSYIDLLYPTEDRNDRLRDSYFFTCECQECTTKDKDKAKVEIRKLSDPPKAEAIRDMVRYARNVIEEFRRAKHYKSPSELLEICELSQEKMSSVFEDSNVYMLHMMYQAMGVCLYMQDWEGALQYGQKIIKPYSKHYPLYSLNVASMWLKLGRLYMGLEHKAAGEKALKKAIAIMEVAHGKDHPYISEIKQEIESH,not soluble
4,MLSFEQSYAPSRNMKLLLVEPSGSYFNDSCCSEPNSPDSGFSSDDSISSDASFAERLTRSKTLPSALRRSRSKQSVKRVRFADSLGLDLENLQYFVKEDLHLQKFNIHFSTPSSSTPPPQLPHFPKQLINQPAPRLVLHNFPYRSEQEYQVKTRDSRVCVAALRASGSSIVGQVNLLNVAFDKVVVVRYTIDGWATQDEIVASYSHRLFDTEDIDAFNFTIAIPVKLSEGKCEFCVQYQVAGAEFWDNNGGDNYIVNVSTKGPSSPFTRCYGASTGLPDAPRGSTRRQQQRRWGRALEESDEETPYVSSAPRRGAHFH,not soluble
5,GPGSMSAHDSSAMALIAHMNDIEQQRRVLSMSQREQEAKIAFTTAEKEQLVQAAKAAEAEEAQLKDDLEVLATEQQQLELQKMEATDRLRRTQAEEALHTAAVEADLQALAKEKVLWHERAQDLESLRRSWEEDAATSSCIAALRQESEMLAPLKAEKTAVEDALAETMAAIEKVRAEQQARLTCLGSVGAPADAVQRSGLARALASMHGSALSDGNTATVDDDDTAAALEEEIKRADYEAAQVTARHGRTIAVLQREVDALSTRAGELQQLLSSIGASWQEVLSRTRDLQHCKETGLCRRCLT,soluble
6,MASDVTVNVSAEKQVIRGFGGMNHPAWAGDLTAAQRETAFGNGQNQLGFSILRIHVDENRNNWYKEVETAKSAVKHGAIVFASPWNPPSDMVETFNRNGDTSAKRLKYNKYAAYAQHLNDFVTFMKNNGVNLYAISVQNEPDYAHEWTWWTPQEILRFMRENAGSINARVIAPESFQYLKNLSDPILNDPQALANMDILGTHLYGTQVSQFPYPLFKQKGAGKDLWMTEVYYPNSDTNSADRWPEALDVSQHIHNAMVEGDFQAYVWWYIRRSYGPMKEDGTISKRGYNMAHFSKFVRPGYVRIDATKNPNANVYVSAYKGDNKVVIVAINKSNTGVNQNFVLQNGSASNVSRWITSSSSNLQPGTNLTVSGNHFWAHLPAQSVTTFVVNRLEHHHHHHHH,soluble
7,MGDSTFLDRMLLQLRSTCKYYSGYPKDLGPSRVLHFTSEREFVQLLHQGYPVVVAFTIRSNYTQHLDRMLEEAAAEFYPNIKFMRVECPKYPGFCITRQKNEYPFIEIFHSPQHAGNEGKVQDPNITRYSVKVVPYNYDMSPYGFREFFKRQGVRTSDPK,not soluble
8,MSLEQLLTNYSIETQTKSCEDFAFRIGFNDIKYMGGVSESAKDGNRKIYNEMLRYAMDKRNNIQAIIVYSMDRFSRHLASAAPDIEKLNKKNIILYSVQEQISSNDDMGIHFMNFKLSSSQFENRLRSSRARDGVRNRILMGKYPFATPPIGYNKDSDKNLVINEDGELLRKAFKMLLDGYSMMHIMKVMSRYGIIKPVNRWGEIFRNPIYAGLIVSKTNDNKPIKGIHQPIVSEKDFYKLQGIFEFKSKPRLKETDTIDIFPLKTLLQCPNGHGRLTGDIKKTKKNQPAYYKCNKCSFTASAQKANNAFLNLLSVVEFNQVFKDEFKEILDAVFENTFQEMTVKKNKLAREISIKETQLTNLFDAKFAEKINENKFEILSAKYTQSLEDMQKQLVFVTAELPEKKTFIEDCLIDLNNFEKLWDVAEYMDKQQIFNTIFKEKPSIVNNNHKIGLSNISLNPAFRSNLVELVHRKAIITGNYEGHHHHHH,not soluble
9,MQGPPRFGRLGGGAARRAARAQAPLYQEQPNYRDLVELAAEQARQAAAAPPPQLVPMLRDPIPIRFHRRDELLDRFGMDLGVAHRQELPNERIELAEARDQLAEQQRRALEAQRDQLARHNALADDLRARRERIVQEARAHARRADARDARLEAAAAADRRERFLQEAQEADARRAADGDARAELGEQLRALEAAVAGLPEAQAPQLRDRRARFVARLRARRAADAQAGALANEQRALEARLEGDFADLRAAEGRLLHPPPPQVCEFFFFAHFLLKMRKNLENLSQKLRFEVENWKIPLKFEICEILWKNHENCSKKR,not soluble
10,MGSDKIHHHHHHMEETVQRIEPARLEDVAEPISDALAELSASSAVLGAKLHPRTAANLADLVRIMNTYYSNLIEGHNTRPRDIERALAGEFDKDQERRNLQVEAAAHVRLQGEIDRLAAEGQLPEPASLDFLRWLHAEFYRDADEAMLRIRGPDREFLMVPGRWRSQPEHDVTVGRHQPPSSDRVEAFMEHFASRYRFQRTGKAARILAIPAAHHRFNYIHPFPDGNGRVSRLMSHAMAHEAGIAAHGLWSISRGLARGLESRGDYKRMMDHADMPRQGDRDGRGNLSMRALADFTLWFLRVCIDQVSFMSSLFDLNQLARRLQRFVQRYDLKPEAFRLLEEALLRGEFDRGEASRIAGLPERTARRVFTEVLELGLLASDTPKGPVSLRFPVDTLDELFPKLFPET,not soluble
11,MPMFTSFDHQMMSRAIELAWRGRFTTSPNPNVGCVITRGEQIVGEGFHFRAGEPHAEVHAMRQAGELTRGATAYVTLEPCSHYGRTPPCAEGLIKAGVAKVICAMQDPNPQVAGKGVQMLRDAGIEVEVGLLEADARVLNRGFLKRMETGMPFVQLKMAASLDGQTALANGKSQWITSPAARKDVQRFRAQASAILSTSQTVLADNASLAVRWYDLPSSVQAQYAEADLRQPLRVILDRQHQLHPELALYQTPSPVLRVASENAELCISAENGKLDLRELLALLAQQHNVNQLWVEAGSQLAQSLIEQKLVDEIILYLAPKLMGSDGRGLFGALGLTEMAEAIELKIEDCRMVGADLRIIATPKTKD,not soluble
12,MEIKTTTTLHRVVEETTKPLGATLVVETDISRKDVNGLARGHLVDGIPLCTPSFYADIAMQVGQYSMQRLRAGHPGAGAIDGLVDVSDMVVDKALVPHGKGPQLLRTTLTMEWPPKAAATTRSAKVKFATYFADGKLDTEHASCTVRFTSDAQLKSLRRSVSEYKTHIRQLHDGHAKGQFMRYNRKTGYKLMSSMARFNPDYMLLDYLVLNEAENEAASGVDFSLGSSEGTFAAHPAHVDAITQVAGFAMNANDNVDIEKQVYVNHGWDSFQIYQPLDNSKSYQVYTKMGQAKENDLVHGDVVVLDGEQIVAFFRGLTLRSVPRGALRVVLQTTVKKADRQLGFKTMPSPPPPTTTM,soluble
13,MKHLEIELKTLLKKDEYNRLKDQFTGVTPVLQTNYYIDTPDFELREKKVAMRIRTFEDWAELTLKVPQSVGNMEYNQKLQLKDAENYLSKEELPQGLVLDELAKHGIQSKNWQVLGCLTTLRYEMKTAIGLMALDQSRYFDITDYELELEVENHEQGKQDFRQFLEKNQISYQKAPSKLVRFVKSMKNS,not soluble
14,MSRTMAEVNRLLKKTAGLINKDTESPFQGEFRVGVDLGTADIQTIVLDADGNPLAGFMDWANVVRDGVVVDFFGASQIVREQVRRASAKLGIQIEQVTTSFPPGTDSRISTNVIEAAGLEVAGVIDEPSSVAQLLQLDHAAVVDIGGGTTGTAIIEEGRVVRSMDDATGGRHITLTLAGHFGLPYEEAEEMKRTSKDLALCRLAAPVIAKMADIVHGHIAGHKVPAIYLTGGSCALPGFLEVFAAEFPGIEIVMPSHPLYLTPLAIATYSDVLQTREQRVGLEHHHHHH,not soluble
15,MGQSWGYEGIAKRSLCTHKWLYNLNLHSINLFLPIESKMSAQASRQKKSDQEQRAADQALLNAAIEDNAMEQDENFTVIDKLESSGISSGDISKLKEAGYYTYESLAFTTRRELRNVKGISDQKAEKIMKEAMKFVQMGFTTGAEVHVKRSQLVQIRTGSASLDRLLGGGIETGSITEVYGEYRTGKTQLCHSLAVLCQLPIDMGGGEGKCMYIDTNATFRPERIIAIAQRYNMDSAHVLENIAVARAYNSEHLMALIIRAGAMMSESRYAVVIVDCATAHFRNEYTGRGDLAERQMKLSAFLKCLAKLADEYGVAVIITNQVVAQVDGGASMFQADAKKPIGGHIIAHMSTTRLYLRKGKGENRVAKMVQSPNLPEAEATYSITNHGIEDARED,soluble
16,MYFVDRSKIEKTLGFFEHQLALFDSQTDWQSEIGELALQRIGHLLIECILDTGNDMIDGFIMRDPGSYDDIMDILVDEKVVTEKEGDELKKLIAYRKTLVQQYLLADSGELYRLIKAHQTALQDFPKRIRSYLETELGPVSAFKLEHHHHHH,soluble
17,MAHHHHHHMNHSPFLTALYTDVQSRLPLWTTRYVKPISNGTFAVSSTWTDDSGAQLQRLFIAVEASDTNCISEAVLAEWIAFVEAWQAAHKEDEVSCFVGFVDLAGTVSYYRCETAVAGAWRSKPDDHLTCR,not soluble
18,MATTVQLSDQSLRQLETLAIHTAHLIQPHGLVVVLQEPDLTISQISANCTGILGRSPEDLLGRTLGEVFDSFQIDPIQSRLTAGQISSLNPSKLWARVMGDDFVIFDGVFHRNSDGLLVCELEPAYTSDNLPFLGFYHMANAALNRLRQQANLRDFYDVIVEEVRRMTGFDRVMLYRFDENNHGDVIAEDKRDDMEPYLGLHYPESDIPQPARRLFIHNPIRVIPDVYGVAVPLTPAVNPSTNRAVDLTESILRSAYHCHLTYLKNMGVGASLTISLIKDGHLWGLIACHHQTPKVIPFELRKACEFFGRVVFSNISAQEDTETFDYRVQLAEHEAVLLDKMTTAADFVEGLTNHPDRLLGLTGSQGAAICFGEKLILVGETPDEKAVQYLLQWLENREVQDVFFTSSLSQIYPDAVNFKSVASGLLAIPIARHNFLLWFRPEVLQTVNWGGDPNHAYEATQEDGKIELHPRQSFDLWKEIVRLQSLPWQSVEIQSALALKKAIVNLILRQAEEHHHHHH,soluble
19,MGSDKIHHHHHHMSSRAFSTVAVTDAFFTLVAPVAKNSARIVIIVNSVSTGKNHPQMVALQQTVQQLGYAHVQLLDVLTDDLAALNTATVIILNGGYEFLLLKNLRETHVLERLRTLALAGKPIYGISAGAILLGPDLDLYVYLYPEDNTEQLASTTAINATTIRIYPHYDVHCEVKPQLPQLITDWEHKTGVTVKRLTNNQGLLVHGSQIQMIDSDS,not soluble
20,MERIDSHVSPRYAQIPTFMRLPHDPQPRGYDVVVIGAPYDGGTSYRPGARFGPQAIRSESGLIHGVGIDRGPGTFDLINCVDAGDINLTPFDMNIAIDTAQSHLSGLLKANAAFLMIGGDHSLTVAALRAVAEQHGPLAVVHLDAHSDTNPAFYGGRYHHGTPFRHGIDEKLIDPAAMVQIGIRGHNPKPDSLDYARGHGVRVVTADEFGELGVGGTADLIREKVGQRPVYVSVDIDVVDPAFAPGTGTPAPGGLLSREVLALLRCVGDLKPVGFDVMEVSPLYDHGGITSILATEIGAELLYQYARAHRTQL,soluble
